Laboratory results reported in article doi:10.1101/2022.02.02.478753.

Molecular target: holoTvFDPF3, highly active Class F flavodiiron protein 3 from Trichomonas vaginalis (TVAG_121610) (Trichomonas vaginalis)
Assay: cryo-EM structure

holoTvFDPF3, highly active Class F flavodiiron protein 3 from Trichomonas vaginalis (TVAG_121610) (enzyme)
stoichiometry N: 2
